Laboratory results published in publication PMC4605646 (PLoS ONE, 2015).

Target: human α-synuclein (human, UniProt P37840 1-140)
Assay: cell-based or functional assay

B1: CsgE (natural protein)
chain: VEVEVPGLLTDHTVSSIGHDFYRAFSDKWESDYTGNLTINERPSARWGSWITITVNQDVIFQTFLFPLKRDFEKTVVFALIQTEEALNRRQINQALLSTGDLAHDEF
- lag phase of α-synuclein amyloid formation (ThT fluorescence, 70 μM α-synuclein, 37°C, agitation) at CsgE-to-α-synuclein molar ratios of 1-to-3, 1-to-10 and 1-to-100: 4 fold
